Measured values reported in the supplement of paper PMC10567573.
± gives the standard deviation.

Assay: protein stability index of a GFP-peptide fusion (GPS, HEK-293T) (PSI 1-6); higher = more stable
[1] = treatment: DMSO, c terminus: a fixed tail appended
[2] = treatment: MLN4924 1 uM, 8 h, c terminus: a fixed tail appended
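Note: 24-mer peptide tiles fused after GFP, lentivirally expressed, FACS-sorted into six equal bins by GFP/DsRed ratio, decoded by Illumina sequencing, PSI is the read-weighted mean bin number.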

Sequence | protein stability index [1] | protein stability index [2] | protein stability index (treatment: DMSO, c terminus: native) | protein stability index (treatment: MLN4924 1 uM, 8 h, c terminus: native)
MEAQAQGLLETEPLQGTDEDAVAS [TPD52L1] | 5.56 ± 0.19 | 5.56 ± 0.16 | – | –
MELLRTITYQPAASTKMCEQALGK [PLK2] | 2.46 ± 0.47 | 3.06 ± 0.43 | – | –
METGRWKKINTEGDVPPSMSGSCA [KLHDC2] | 4.01 ± 0.34 | 4.21 ± 0.097 | – | –
MEVLAAETTSQQERLQAIAEKRKR [PALM] | 5.15 ± 0.27 | 5.23 ± 0.32 | – | –
MGDEEKRNRAITARRQHLKSVMLQ [TNNI2] | 4.06 ± 0.3 | 4.12 ± 0.21 | – | –
MGGCPVRKRRRNGSKEGNHHSTQP [FAM104B] | 4.72 ± 0.17 | 4.86 ± 0.24 | – | –
MGGPFSYVYFFCTVPEILVHNIVI [TMEM106C] | 3.23 ± 0.51 | 3.19 ± 0.82 | – | –
MGMNMNIGMSAAGMGLTGTMGMGM [CLINT1] | 2.48 ± 0.18 | 2.2 ± 0.28 | – | –
MGPAPRARPWTRDSASLPRKPSVP [RASAL3] | 4.08 ± 0.14 | 4.12 ± 0.23 | – | –
MGTRDDEYDYLFKVVLIGDSGVGK [RAB11A] | 2.27 ± 0.41 | 2.44 ± 0.35 | – | –
MHPINVRRDPSIPIYGLRQSILLN [C22orf31] | 2.33 ± 0.22 | 2.63 ± 0.51 | – | –
MKALILVGGYGTRLRPLTLSTPKP [GMPPB] | 2.18 ± 0.61 | 2.23 ± 0.23 | – | –
MLKRPVLLHLHQTAHADEFDCPSE [STEAP1] | 3.73 ± 0.29 | 3.73 ± 0.48 | – | –
MMVNLRACSAPGGLVPSEKPPMMP [C2CD2L] | 2.14 ± 0.26 | 2.29 ± 0.06 | – | –
MNTEAEQQLLHHARNGNAEEVRQL [OSBPL1A] | 5.24 ± 0.28 | 5.47 ± 0.12 | – | –
MQAASSKMVSAEISENRKRQWPTK [SDE2] | 4.33 ± 0.33 | 4.7 ± 0.17 | – | –
MQATADSTKMDCVWSNWKSQAIDL [RTN1] | 3.17 ± 0.11 | 3.41 ± 0.36 | – | –
MQPEGLKCRMEESNAERGTAEPFP [CBY2] | 4.88 ± 0.3 | 4.69 ± 0.27 | – | –
MRRGAPQDQELVGPGPPGRGSRGA [MOSPD3] | 5.31 ± 0.44 | 5 ± 0.28 | – | –
MTEMSFLSSEVLVGDLMSPFDQSG [ATF4] | 3.37 ± 0.1 | 3.24 ± 0.37 | – | –
MTQVITRTQEEKLEHVRALIKKYS [TRIM55] | 2.68 ± 0.11 | 2.94 ± 0.3 | – | –
MTVGILSNSLAIAILMKAYQRFRQ [PTGFR] | 2.17 ± 0.28 | 2.2 ± 0.31 | – | –

Sequence | protein stability index [1] | protein stability index [2] | protein stability index (treatment: DMSO, c terminus: native) | protein stability index (treatment: MLN4924 1 uM, 8 h, c terminus: native)
NEGAIDCVNYEGQSAYDVADMLKQ [DLC1] | 4.82 ± 0.28 | 4.82 ± 0.12 | – | –
NERMLESYLHAKKYLKPSGNMFPT [CARM1] | 2.59 ± 0.26 | 2.99 ± 0.37 | – | –
NEYFFDRNRPSFDAILYYYQSGGR [KCNA3] | 2.34 ± 0.3 | 2.42 ± 0.18 | – | –
NGITQGDKLRALKSQRQPRTSPSC [CDC14A] | 4.16 ± 0.19 | 4.14 ± 0.071 | – | –
NGVLEPLYLCPNGARCATWFQDPT [SLC25A39] | 2.48 ± 0.19 | 2.47 ± 0.074 | – | –
NHRLISEILSESVVPDVRSVVTTA [SMARCE1] | 3.31 ± 0.26 | 3.17 ± 0.56 | – | –
NIMMPMGGMMPPGPGIPPLMPGMP [ZNF207] | 2.87 ± 0.29 | 2.88 ± 0.13 | – | –
NKRVGMYLEGFDPFNQSTFNNVVE [DLC1] | 3.09 ± 0.24 | 3.23 ± 0.2 | – | –
NKVELQAKVESMDQEIKFFRCLFE [KRT71] | 2.52 ± 0.51 | 2.48 ± 0.38 | – | –
NLLRDDRVLQNLLTIEERYLPQCS [CCND2] | 2.49 ± 0.26 | 2.58 ± 0.35 | – | –
NLQSLKFQGGHGPAATLLRRSKT [RIPK4] | – | – | 3.18 ± 0.21 | 3.27 ± 0.14
NLSSRWKNWWVRGILTLAMIAFFF [CDS2] | 4.15 ± 0.14 | 4.04 ± 0.15 | – | –
NMMKVLRGHQNWVYSCAFSPDSSM [WSB1] | 2.37 ± 0.96 | 2.64 ± 0.54 | – | –
NMPETLPNNSCYSAGIAKLEEGDE [TNFSF13B] | 5.35 ± 0.23 | 5.5 ± 0.21 | – | –
NNFSPLHLAVDKNTTCVGRYPVCK [FEM1C] | 3.42 ± 0.15 | 3.52 ± 0.12 | – | –
NPTEPATIIFTAAREGRETLKCLS [TOR1AIP2] | 3.71 ± 0.25 | 3.69 ± 0.12 | – | –
NPTQNVRTILLSVISLLNEPNTFS [CDC34] | 2.86 ± 0.54 | 2.95 ± 0.61 | – | –
NQGYLSEAGASLVDQKLELNIVPR [PI4K2A] | 4.05 ± 0.23 | 4.33 ± 0.28 | – | –
NRNHNEGMVTRCIIEVLSNALSKS [CHGB] | 2.25 ± 0.24 | 2.1 ± 0.27 | – | –
NSHVYNGRTHQWKPLYPDDYVHIS [ADAMTSL2] | 2.78 ± 0.31 | 2.8 ± 0.34 | – | –
NSLFIDRQKCMAHRTRYPTILQLA [TEKT4] | 2.23 ± 0.34 | 2.12 ± 0.23 | – | –
NTKLRQAERLFENQLVGPESIAHI [APMAP] | 3.22 ± 0.12 | 3.42 ± 0.48 | – | –

Sequence | protein stability index [1] | protein stability index [2] | protein stability index (treatment: DMSO, c terminus: native) | protein stability index (treatment: MLN4924 1 uM, 8 h, c terminus: native)
NTRFVVDPSIFTAQPNTMLGRMFG [BTBD10] | 2.51 ± 0.52 | 2.44 ± 0.16 | – | –
NVGLESKYLKKREDSIPLRGLSQN [SASS6] | 4.34 ± 0.19 | 4.06 ± 0.26 | – | –
NVPPIPVETLVKKKIPIISNAMLV [ACSBG2] | 2.4 ± 0.21 | 2.38 ± 0.27 | – | –
NYASIIRRDCMWSGFSARERLERA [MYCL] | 2.78 ± 0.3 | 2.77 ± 0.3 | – | –
NYPKGGLLDSMCPASTPSVLSSEQ [ETS2] | 4.64 ± 0.26 | 4.45 ± 0.15 | – | –
NYQAHQSRVTMILFVLELEWVLST [WDFY2] | 3.1 ± 0.08 | 2.89 ± 0.67 | – | –
PAAGLDVTQPCGDCGTIQENWVCL [HDAC6] | 2.68 ± 0.25 | 2.79 ± 0.25 | – | –
PAYATTRIRSQIGNTESELKKLAE [GDAP1] | 4.53 ± 0.095 | 4.53 ± 0.18 | – | –
PCKLEKMRILAHGELVLATAISSF [TLE6] | 2.7 ± 0.36 | 2.45 ± 0.41 | – | –
PDDSTSEDGIHTLTCALMLLNTDL [PSD2] | 3.12 ± 0.27 | 3.1 ± 0.34 | – | –
PDEERPLRRPRPVQRTQSVPVRRP [RASAL3] | 5.19 ± 0.27 | 5.21 ± 0.18 | – | –
PDREKGFHLDVEDYLSGVLILASE [TSN] | 2.14 ± 0.1 | 2.81 ± 0.2 | – | –
PDSPATGAHWMRQLVSFQKLKLTN [TBX5] | 2.92 ± 0.35 | 3 ± 0.21 | – | –
PEAVDEDRSTEPDRLQVFHKRAIM [ATE1] | 4.8 ± 0.23 | 4.91 ± 0.12 | – | –
PEEPAASTDPNIVRKKERGREEKC [TAF7L] | 5.28 ± 0.53 | 5.64 ± 0.32 | – | –
PEGGLEEPDALDDSLTSLQWLQEF [FOXJ1] | 4.64 ± 0.17 | 4.53 ± 0.3 | – | –
PEGYNLKDEEGRLRDPATITTLRV [PPP2R2B] | 4.54 ± 0.062 | 4.37 ± 0.29 | – | –
PELTITSLFSPVTEDSPLGTVVAL [PCDHGA10] | 2.56 ± 0.26 | 2.72 ± 0.33 | – | –
PESAIKFMAYEQIKRLVGSDQETL [SLC25A25] | 3.31 ± 0.15 | 3.4 ± 0.25 | – | –
PFTKKRVGVDRAFPLKPMVHRKSC [ZC2HC1C] | 3.4 ± 0.13 | 3.65 ± 0.1 | – | –
PFYPEVELNFISVFWPQLPNGLEA [MMP1] | 2.61 ± 0.28 | 2.62 ± 0.52 | – | –
